The text below walks through data of US20040248790A1, “Novel secretory proteins and dna thereof” (priority 2001, published 2004).

Format in all cases: cell-based
Test [1] has as its target T1, AQ27 (Homo sapiens, UniProt Q96P65).
T1 sequence (Q96P65 1-431): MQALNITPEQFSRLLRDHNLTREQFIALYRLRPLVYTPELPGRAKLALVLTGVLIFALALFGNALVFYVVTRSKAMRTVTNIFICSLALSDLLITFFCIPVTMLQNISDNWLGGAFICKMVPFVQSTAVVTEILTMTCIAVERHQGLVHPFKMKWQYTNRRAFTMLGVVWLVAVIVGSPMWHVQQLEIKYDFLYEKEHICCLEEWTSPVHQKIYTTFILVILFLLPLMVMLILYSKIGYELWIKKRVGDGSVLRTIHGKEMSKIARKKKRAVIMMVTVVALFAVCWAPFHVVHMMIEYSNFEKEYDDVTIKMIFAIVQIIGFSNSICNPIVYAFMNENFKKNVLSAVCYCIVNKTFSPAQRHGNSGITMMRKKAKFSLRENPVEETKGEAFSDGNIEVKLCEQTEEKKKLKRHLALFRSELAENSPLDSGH
Put plainly: Intracellular calcium ion release (FLIPR) in AQ27-expressing CHO cells. The settings on record: for peptide concentration at which intracellular calcium ion mobilizing activity was recognized in CHO-AQ27: AQ27-expressing CHO cells; for activity in promoting intracellular calcium ion release in AQ27-expressing CHO cells: peptide 10 μM and 1 μM compared with absence of the sample, Fluo 3-AM. On the set-up: expressed in transfected cells; host or cells: CHO cells. As for the experimental part:
AQ27-expressing CHO cells established by a method known per se were plated on a 96-well black culture plate (Costar) at a density of 4×10^4 cells/well and cultured overnight. The assay buffer used was a buffer prepared by adding 20 mM HEPES, pH 7.4 (Dojin Kagaku) and 2.5 mM probenecid (Sigma) to a Hanks' balanced salt solution (HBSS). The medium for the cells were removed, and a solution prepared by adding 4 μM Fluo 3-AM (Dojindo) and 0.04% pluronic acid (Molecular Probes) to the assay buffer was added thereto and incubated at 37° C. for 1 hour. The cells were washed with the assay buffer to remove an excess of Fluo 3 and set in FLIPR (Molecular Devices). A sample dissolved in the assay buffer was also set in FLIPR, and the sample was added to the cells by a built-in manipulator, and a change in fluorescence depending on the concentration of intracellular calcium ions generated by irradiation with an excitation light was measured. As a result, the reactions shown in FIGS. 26 and 27 were detected respectively in the presence of novel peptide F: Arg-Lys-Lys-Gly-Gly-Phe-Ser-Phe-Arg-Phe-NH2 (positions 124 to 133 (RKKGGFSFRF—NH2) in SEQ ID NO: 23) and novel polypeptide F: Gly-Gly-Phe-Ser-Phe-Arg-Phe-NH2 (positions 127 to 133 (GGFSFRF—NH2) in SEQ ID NO: 23) in an amount of 10 μM (▴) and 1 μM (□), as compared with the absence of the sample (◯), and the activity of each peptide in promoting intracellular calcium ion release in the AQ27-expressing CHO cells was detected.
In general terms: Calcium flux is commonly read through the fluorescence of an indicator in the cells.

For test [2], the system named is mock CHO cells. Put plainly: cAMP production-suppressing activity in mock CHO cells (control). The conditions noted are these: mock CHO cells as the control; forskolin. As for the experimental part:
(§1) AQ27-expressing CHO cells (FIG. 24) established by a method known per se and mock CHO cells (FIG. 25) serving as a control were plated on a 96-well plate (Becton Dickinson Company, Ltd.) at a density of 4×10^4 cells/well and cultured overnight. The assay buffer used was a buffer prepared by adding 0.1% bovine serum albumin and 0.2 mM 3-isobutyl-1-methylxanthine to a Hanks' balanced salt solution. The cells were washed twice with the assay buffer and pre-incubated at 37° C. for 30 minutes. The cells were washed again twice with the assay buffer, and a sample prepared in the assay buffer was added thereto, and the cells were incubated at 37° C. for 30 minutes. To evaluate the cAMP production-suppressing activity, a sample composed exclusively of 2 μM forskolin (FSK, Wako Pure Chemical Industries, Ltd.) promoting production of cAMP and a sample containing 2 μM FSK and 10^−7 to 10^−5 M novel polypeptide F: Arg-Lys-Lys-Gly-Gly-Phe-Ser-Phe-Arg-Phe-NH2 (positions 124 to 133 in SEQ ID NO: 23) were compared. A supernatant of the cells was discarded, and the amount of cAMP produced in the cells was measured by cAMP Screen System (Applied Biosystems).
Background: cAMP levels reflect the balance of adenylyl cyclase and phosphodiesterase activity.

Test [3] deals with T1, AQ27. Put plainly: CRE-luciferase reporter gene assay in HEK 293 cells transiently expressing AQ27 receptor. On the set-up: expressed in transfected cells; host or cells: HEK 293 cells, transient, vector pAKKO-111H, co-transfected with pCRE-Luc. The conditions noted are these: pCRE-Luc reporter, peptide 10, 1 and 0.1 μM in Example 9, 4 hours. An excerpt: (§2) The specific stimulating activity of novel polypeptides F synthesized in Example 8 on AQ27 receptor (SEQ ID NO: 31) and human OT7T022 receptor (SEQ ID NO: 35) was detected by using, as an indicator, the amount of a reporter gene product (luciferase) produced by induction of expression of a cAMP response element (CRE) promoter.
The HEK 293 cells were suspended in a growth medium (DMEM [Dulbecco's Modified Eagle Medium] (Gibco BRL) containing 10% fetal bovine serum (Gibco BRL)), and plated at a density of 1×10^5 cells/well on a black 96-well plate (Becton Dickinson Company, Ltd.) coated with collagen. After the cells were cultured overnight at 37° C. in 5% CO2, the cells were transfected in the following manner with a reporter gene-containing plasmid pCRE-Luc (Clontech) and simultaneously with an expression vector plasmid prepared by inserting AQ27 gene (SEQ ID NO: 32) and human OT7T022 gene (SEQ ID NO: 36) by a known method into an animal cell expression vector pAKKO-111H (the same plasmid vector as pAKKO-1.11H described in Biochem. Biophys. Acta, Hinuma, S. et al., 1219, 251-259, 1994) or with the intact pAKKO-111H not containing AQ27 gene.
OPTI-MEM-I (Gibco BRL) and Lipofectamine™ 2000 Reagent (Gibco BRL) were mixed in a ratio of 24:1 to prepare a Lipofectamine dilution. Separately, OPTI-MEM-I, AQ27 expression vector plasmid or the intact vector plasmid (240 ng/μl) and pCRE-Luc (240 ng/μl) were mixed in a ratio of 24:0.9:0.1 to prepare a DNA dilution. The Lipofectamine dilution and the DNA dilution were mixed in equal amounts and left for 20 minutes at room temperature, to form a DNA/Lipofectamine complex, and 25 μl of the complex was added to the plate where the HEK 293 cells were cultured, and the cells were further cultured overnight at 37° C. in 5% CO2.
(§3) The HEK 293 cells thus transfected were washed with an assay medium (DMEM containing 0.1% bovine serum albumin), and then each of novel polypeptides F synthesized in Example 8, diluted with the assay buffer, was added at concentrations of 10, 1 and 0.1 μM respectively to the cells which were then cultured at 37° C. in 5% CO2 for 4 hours. The culture supernatant was discarded, and 50 μl Pikka Gene LT2.0 (Toyo Ink Mfg. Co., Ltd.), that is, a substrate for measurement of luciferase activity, was added thereto, and the fluorescence of luciferase was measured with a plate reader (ARVO sx multilabel counter, Wallac).
First, full-length human novel secretory protein F gene (SEQ ID NO: 24) was introduced in a usual manner into an expression vector […]. […] The AQ27-specific activity was detected by using an indicator the amount of the reporter gene product (luciferase) produced by induction with expression of cAMP response element (CRE) promoter.
For orientation: A reporter such as luciferase makes a cellular process visible.

In test [4] the target is T1, AQ27. Put plainly: cAMP production-suppressing activity in AQ27-expressing CHO cells. On the set-up: expressed in transfected cells; host or cells: CHO cells. The settings on record: 2 μM forskolin; for cAMP production induced by FSK in AQ27-expressing CHO: 30 minutes at 37° C., 10^−7 to 10^−5 M peptide in Example 12. As for the experimental part:
as §1

Test [5] concerns mock CHO cells. Put plainly: Intracellular calcium ion change (FLIPR) in mock CHO cells (control). The conditions noted are these: mock CHO cells as the control.
The target in another test is T2, human OT7T022 receptor (Homo sapiens, UniProt Q9GZQ6).
T2 construct: expressed in transfected cells; host or cells: HEK 293 cells, transient, vector pAKKO-111H, co-transfected with pCRE-Luc
T2 sequence (Q9GZQ6 whole entry): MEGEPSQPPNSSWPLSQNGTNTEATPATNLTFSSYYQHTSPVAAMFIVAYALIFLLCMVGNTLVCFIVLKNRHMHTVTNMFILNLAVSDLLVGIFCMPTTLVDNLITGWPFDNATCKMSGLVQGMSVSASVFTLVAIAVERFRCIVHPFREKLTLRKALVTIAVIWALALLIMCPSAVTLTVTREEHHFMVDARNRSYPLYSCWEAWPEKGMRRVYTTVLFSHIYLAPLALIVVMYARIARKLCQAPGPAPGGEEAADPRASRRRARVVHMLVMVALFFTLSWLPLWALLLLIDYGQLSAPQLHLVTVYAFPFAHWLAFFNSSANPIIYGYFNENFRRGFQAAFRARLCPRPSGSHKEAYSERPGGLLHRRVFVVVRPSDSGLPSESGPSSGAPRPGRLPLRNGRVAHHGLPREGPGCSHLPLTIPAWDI
Put plainly: CRE-luciferase reporter gene assay in HEK 293 cells transiently expressing OT7T022 receptor. The settings on record: HEK 293 cells transiently expressing human OT7T022 receptor; pCRE-Luc reporter; peptide 10, 1 and 0.1 μM in Example 9.
Excerpt: as §2
The HEK 293 cells were suspended in a growth medium (DMEM [Dulbecco's Modified Eagle Medium] (Gibco BRL) containing 10% fetal bovine serum (Gibco BRL)), and plated at a density of 1×10^5 cells/well on a black 96-well plate (Becton Dickinson Company, Ltd.) coated with collagen. […]
as §3

Where no end group is shown, it is not given here.

In the case of “Ala-Ser-Gln-Pro-Gln-Ala-Leu-Leu-Val-Ile-Ala-Arg-Gly-Leu-Gln-Thr-Ser-Gly-Arg-Glu-His-Ala-Gly-Cys-Arg-Phe-NH2 (ASQPQALLVIARGLQTSGREHAGCRF-NH2) [A1-F28-NH2]”, the “peptide concentration at which intracellular calcium ion mobilizing activity was recognized in CHO-AQ27” value in the test with AQ27 [1] is “at least 10^−6 M”. For the same substance, the “cAMP production-suppressing activity in mock CHO cells” value in the test on mock CHO cells [2] is listed as “not recognized”. Also, the “activity of luciferase stimulated by adding forskolin (FSK), AQ27 receptor” value (“activity … AQ27 receptor” for short) with AQ27 [3] is “increase in luciferase activity”. Besides, in the test with AQ27 [4] (AQ27-expressing CHO cells), the “peptide concentration at which FSK-induced cAMP production was suppressed in AQ27-expressing CHO” value is on record as “at least 10 M”. Moreover, in the test on mock CHO cells [5], the “intracellular calcium ion mobilizing activity in mock CHO cells” value is “not recognized”.
For “Pyr-Asp-Glu-Gly-Ser-Glu-Ala-Thr-Gly-Phe-Leu-Pro-Ala-Ala-Gly-Glu-Lys-Thr-Ser-Gly-Pro-Leu -Gly-Asn-Leu-Ala-Glu-Glu-Leu-Asn-Gly-Tyr-Ser-Arg-Lys-Lys-Gly-Gly-Phe-Ser-Phe Arg-Phe-NH2 (QDEGSEATGFLPAAGEKTSGPLGNLAEELNGYSRKKGGFSFRF; N-terminal pyroglutamate, C-terminal amide; Human) [Pyr1-F43-NH2]”, the “peptide concentration at which intracellular calcium ion mobilizing activity was recognized in CHO-AQ27” value in the test with AQ27 [1] is on record as “at least 10^−8 M”. Further, the “cAMP production-suppressing activity in mock CHO cells” value in the test with mock CHO cells [2] is listed as “not recognized”. Further, the “activity … AQ27 receptor” value in the test with AQ27 [3] is reported as “increase in luciferase activity”. Also, the “cAMP production induced by FSK in AQ27-expressing CHO” value with AQ27 [4] is “suppressed”. For the same substance, the “intracellular calcium ion mobilizing activity in mock CHO cells” value with mock CHO cells [5] is recorded as “not recognized”.
As to “Gly-Gly-Phe-Ser-Phe-Arg-Phe-NH2 (GGFSFRF-NH2)”, the “activity in promoting intracellular calcium ion release in AQ27-expressing CHO cells” value with AQ27 [1] is on record as “detected”.
Regarding “Arg-Lys-Lys-Gly-Gly-Phe-Ser-Phe-Arg-Phe-NH2 (RKKGGFSFRF-NH2)”, the “activity of luciferase stimulated by adding FSK, human OT7T022 receptor” value with human OT7T022 receptor is listed as “suppressing the luciferase activity”. Besides, the “activity in promoting intracellular calcium ion release in AQ27-expressing CHO cells” value with AQ27 [1] is given as “detected”. The “activity … AQ27 receptor” value with AQ27 [3] is “increasing the luciferase activity”. Also, the “cAMP production induced by FSK in AQ27-expressing CHO” value with AQ27 [4] is on record as “suppressed”.
With “Thr-Ser-Gly-Pro-Leu-Gly-Asn-Leu-Ala-Glu-Glu-Leu-Asn-Gly-Tyr-Ser-Arg-Lys-Lys-Gly-Gly-Phe-Ser-Phe Arg-Phe-NH2 (TSGPLGNLAEELNGYSRKKGGFSFRF-NH2) [T1-F26-NH2]”, in the test with AQ27 [3], the “activity … AQ27 receptor” value was “increase in luciferase activity”.
